Publication PMC5499575 (Nucleic Acids Research, 2017)

Biological target: T1, HDA15-GST (Arabidopsis, UniProt Q8GXJ1 1-552)
T1 sequence (looked up): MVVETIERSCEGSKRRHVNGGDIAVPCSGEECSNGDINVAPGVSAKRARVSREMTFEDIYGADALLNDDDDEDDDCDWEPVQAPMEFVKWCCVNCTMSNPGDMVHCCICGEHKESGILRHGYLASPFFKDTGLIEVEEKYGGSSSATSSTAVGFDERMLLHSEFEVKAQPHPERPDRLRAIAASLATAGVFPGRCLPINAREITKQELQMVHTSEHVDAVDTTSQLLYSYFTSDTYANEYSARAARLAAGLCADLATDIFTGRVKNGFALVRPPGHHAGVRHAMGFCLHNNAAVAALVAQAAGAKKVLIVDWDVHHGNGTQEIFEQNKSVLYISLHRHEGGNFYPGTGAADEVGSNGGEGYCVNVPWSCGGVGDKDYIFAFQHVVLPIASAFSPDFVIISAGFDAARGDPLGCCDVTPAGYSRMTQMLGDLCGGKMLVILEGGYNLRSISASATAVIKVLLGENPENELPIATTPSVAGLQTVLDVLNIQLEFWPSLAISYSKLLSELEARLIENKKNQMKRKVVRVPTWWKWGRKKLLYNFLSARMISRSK
Test: pull-down

B1: PIF1-His (natural protein, Arabidopsis, UniProt Q8GZM7 1-478, looked up)
chain: MHHFVPDFDTDDDYVNNHNSSLNHLPRKSITTMGEDDDLMELLWQNGQVVVQNQRLHTKKPSSSPPKLLPSMDPQQQPSSDQNLFIQEDEMTSWLHYPLRDDDFCSDLLFSAAPTATATATVSQVTAARPPVSSTNESRPPVRNFMNFSRLRGDFNNGRGGESGPLLSKAVVRESTQVSPSATPSAAASESGLTRRTDGTDSSAVAGGGAYNRKGKAVAMTAPAIEITGTSSSVVSKSEIEPEKTNVDDRKRKEREATTTDETESRSEETKQARVSTTSTKRSRAAEVHNLSERKRRDRINERMKALQELIPRCNKSDKASMLDEAIEYMKSLQLQIQMMSMGCGMMPMMYPGMQQYMPHMAMGMGMNQPIPPPSFMPFPNMLAAQRPLPTQTHMAGSGPQYPVHASDPSRVFVPNQQYDPTSGQPQYPAGYTDPYQQFRGLHPTQPPQFQNQATSYPSSSRVSSSKESEDHGNHTTG
binding result: binds
